The results in this text go back to patent publication US20260258115A1 (MAPP BIOPHARMACEUTICAL, published 2026).

Some results are limits rather than exact numbers.

The target of assay [1] is RSV F on RSV-A2 virus (Respiratory syncytial virus, RSV-A2, UniProt P03420 26-574). Description: cell-based or functional assay.
The target of assay [2] is RSV prefusion F (preF), DS-Cav1 (Respiratory syncytial virus, UniProt P03420 26-513). In words: BLI, IgG on anti-human IgG sensor, 100 nM antigen.
Assay [3] deals with RSV postfusion F (postF), F ΔFP (Respiratory syncytial virus, UniProt P03420 26-513). In words: BLI, IgG on anti-human IgG sensor, 100 nM antigen.
Assay [4] concerns the target RSV prefusion F (preF), subtype A (respiratory syncytial virus, subtype A, UniProt P03420 26-513). In words: BLI, IgG.
Assay [5] deals with T1, RSV postfusion F (postF), subtype A (respiratory syncytial virus, subtype A, UniProt P03420 26-513).
T1 construct: also called F ΔFP; Postfusion subtype A
In words: BLI, IgG.

Assay [6] deals with T2, RSV postfusion F (postF), subtype B (respiratory syncytial virus, subtype B).
T2 construct: also called F ΔFP; Postfusion subtype B
Description: BLI, IgG.

The target in assay [7] is RSV prefusion F (preF), subtype B (respiratory syncytial virus, subtype B). In words: BLI, IgG.

B1: ADI-41664 (antibody, V domains shown)
VH: EVQLVQSGDEVKKPGASVKVSCKASGYPFSTYGISWVRQAPGQGLEWMGWIGVYTGGTNYAQKFQGRVTLTTDTSTSTAYMELRSLRSDDTAVYYCARGTGSYMTATYFDYWGQGTLVTVSS
VL: SYELTQPPSVSVAPGQTARITCGGNNIGSKAVHWYQQKPGQAPVLVVYDDYDRPSGIPERFSGSNSGNTATLTISRVEAGDEADYYCQVWDSSSDYVFGTGTKLTVL
notes: also called Ab 890; Antibody Number 890
In the case of B1, the “Neutralization IC50 (RSV subtype A)” value in assay [1] was greater than 25 µg/mL. Also, the Kd came to 2.94 nM in assay [2] and 0.825 nM in assay [3].

B2: ADI-41644 (antibody, V domains shown)
VH: QVQLQQWGPGLVKPSETLSLSCAVSGGSLRGHFWSWIRQPPGKGLEWIGEINHGGRTNFNPSLKSRLTISEDSSKNQFSLKLSSVTAADTAVYYCARRWGYDSSGYYFFDYWGQGTLVTVSS
VL: EIQMTQSPATLSVSPGERATLSCRASQTLGFNLAWYQQKPGQSPRLLIYGASTRATGIPARFSGSGAGTEFTLTISSLQSEDFAVYFCQQYSNYYTFGQGTKVEIK
notes: also called Ab 887; Antibody Number 887
Turning to B2, the “Neutralization IC50 (RSV subtype A)” value in assay [1] was greater than 25 µg/mL. Further, the dissociation constant Kd in assay [2] worked out at 3.03 nM; in assay [3], 1.1 nM.

B3: ADI-14417 (antibody, V domains shown)
VH: EVQLVESGGGLVKPGGSLRLSCAASGFSFSSYSMHWVRQAPGKGLEWVSSISGSSTYIYHADSVKGRFTISRDNAERSLHLQMNSLRAEDTAVYYCARDPYSSGWLDSWGQGTLVTVSS
VL: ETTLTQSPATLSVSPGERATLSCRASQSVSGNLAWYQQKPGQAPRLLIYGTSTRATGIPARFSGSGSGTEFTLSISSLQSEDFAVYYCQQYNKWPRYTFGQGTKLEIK
notes: also called Ab 83
Consider B3, for which the binding result in assay [4] is “no binding”. In addition, the Kd in assay [5] is 1.63 nM; in assay [6] it was 3.99 nM.

B4: ADI-41626 (antibody, V domains shown)
VH: EVQLQESGPGLVKPSGTLSLTCAVAGGFISSGNWWSWIRQPPGKGLEWIGEVYHSGRTSYNPSLKSRVTISVDNSKNQFSLKMSSVTAADTAVYYCARVESYSSSGYYIAYFDNWGQGNLVTVSS
VL: DIVLTQSPSSLSASVGDRVTITCRASQSISRYLSWYQQKPGKAPKLLIYAAFSLQTGVPSRFSGSGSGTDFTLTISSFQTEDSATYYCQQSYSAPVTFGGGTKVEIK
With B4, in assay [1], the “Neutralization IC50 (RSV subtype A)” value was greater than 25 µg/mL. Besides, the Kd in assay [2] was 2.6 nM; in assay [3] it was 0.891 nM.

B5: ADI-20997 (antibody, V domains shown)
VH: EVQLVESGGGVVQPGRSLRLSCAASGFPFNSYGMHWVRQAPGKGLEWLAVIYFDESTAYYADSVKGRFTISRDNSKSTLYLQMNSLRAADTAIYYCTTTVMIPYGGVFWGQGTLVTVSS
VL: EIVMTQSPGTLSLSPGDRATLSCRASQSVGSTHFAWYQQKPGQAPRLLIYAASIRATGIPDRFSGGGSGTDFTLTISRLAPEDFAVYYCQQYGSTPITFGQGTRLEIK
In the case of B5, the Kd is 3.09 nM in assay [7] and 0.609 nM in assay [6].

B6: ADI-21056 (antibody, V domains shown)
VH: EVQLLESGGGLVKPGGSLKLSCAASGFTLRSYYMHWVRQAPGRGLEWVSSISASSSYINYVDAVKGRFTVSRDNAKNSLFLQMNSLRAEDTAVYYCAREGGAMTNFGVVIDIWGQGTMVTVSS
VL: SYVLTQPPSVSGAPGQRVTISCTGSSSNIGAGYDVHWYQQLPGTAPKLLIYTNTNRPSGVPDRFSGSKSGTSASLAITGLQSDDEADYYCQSYDSSLSGPVVFGGGTKLTVL
In the case of B6, the results for the Kd in assay [7] and in assay [6] were 0.223 nM and 63.4 nM, respectively.

B7: ADI-41611 (antibody, V domains shown)
VH: EVQLVESGGGLVKPGGSLRLSCAASGFTFSDYSMNWVRQAPGKGLEWVSSTSSGSTYIYYADSVKGRFTISRDNGKNSLYLQMNSLRAEDTAVYYCARAFRLGYDALDIWGQGTMVTVSS
VL: DIRMTQSPSSLSASVGDRVTIICRASQSISNYLNWYQQKPGKAPKLLIYVASNLQSGVPSRFSGSGSGTDFTLTISSLQPEDFATYYCQQTYSPPPTFGGGTKLEIK
notes: also called Ab 885; Antibody Number 885
Regarding B7, the “Neutralization IC50 (RSV subtype A)” value in assay [1] is greater than 25 µg/mL. Besides, the results for the Kd in assay [2] and in assay [3] were 3.09 nM and 0.611 nM, respectively.

B8: ADI-14404 (antibody, V domains shown)
VH: EVQLVESGGGLVQPGGSLRLSCAASGFTFSNFEMNWVRQAPGKGLEWVSYISSSGRIIYYADSVKGRFTISRDNARNSLYVQMNSLRVEDTAVYYCARAKAAAGHDLWGQGTLVTVSS
VL: EIVLTQSPSTLSASVGDRVTITCRASQSISPWLAWYQQKPGKAPKLLIYRASSLESGVPSRFSGSGSGTEFTLTISSLQPDDFATYYCQHYNSYLYTFGQGTKVEIK
notes: also called Ab 70
B8: the binding result in assay [4] is “no binding”. In addition, the Kd in assay [5] was 0.627 nM; in assay [6], 0.498 nM.

B9: ADI-14605 (antibody, V domains shown)
VH: EVQLLESGPALVKPTQTLTLTCTFSGFSLTTSGMCVSWIRQPPGKALEWLARIDWDDDQYFSTSLRTRLSISKDTSKNQVVLTMTNMDPVDTATYYCARSALNIAARGFDIWGQGTTVTVSS
VL: QPGLTQPPSVSVSPGQTARITCSGDVLPKHFSYWYQQKPGQAPVLVIHRDSERPSGIPERFSGSSSGTTVTLTISGVQAEDEADYYCQFSDITNTVFGGGTKLTVL
Regarding B9, the figures for the Kd in assay [7] and in assay [6] were 2.72 nM and 0.399 nM, respectively.

B10: ADI-14606 (antibody, V domains shown)
VH: QVQLVQSGGGLVQPGGSLRLSCAASGFTVSSNYMGWVRQAPGKGLEWVSVIYTGGSTYYADSVKGRFTISRDNFKNTLYLQMNSLRAEDTALYYCARDLYSSGWFGYWGQGTLVTVSS
VL: DIRLTQSPATLSVSPGERATLSCRASQSVSINLGWFQQKPGQSPRLLIYGTSTRATGIPARFSGSGSGTEFTLTISSLQSEDFAVYYCHQYNNWPYTFGQGTKVEIK
Take B10: the binding result in assay [4] is “no binding”. Also, the Kd in assay [5] amounted to 1.28 nM; in assay [6] it was 0.659 nM.

B11: ADI-41662 (antibody, V domains shown)
VH: QVQLVQSGAEVKKAGESLKISCKGPRHSFTSYWIGWVRQMPGKGLEWMASIYPGDSDSRYSPSFEGQVTISADKSIDTAFLQWSSLKASDTAMYFCARYVGAVPGGNWYFDLWGRGTLVTVSS
VL: SYELIQLPSVSVSPGQTARITCSGDALPKKYAYWYQQKSGQAPVLVIYDDNKRPSGIPARFSGSSSGTMATLTISGAQVEDEGDYYCYSTDSTGDHRGVFGGGTKLTVL
With B11, in assay [1], the “Neutralization IC50 (RSV subtype A)” value was greater than 25 µg/mL. The Kd in assay [2] stood at 5.24 nM; in assay [3], 1.21 nM.

B12: ADI-14598 (antibody, V domains shown)
VH: QVQLVQSGAEVKKPGSSVKVSCKASGGTFSSYAIYWVRQAPGQGLECMGGIIPIFGSANYAQKFQGRVTITADESTSTAYMELSSLRSEDTAVYYCATDSLKTTYYYGSSGYFRDHVWGQGTTVTVSS
VL: ETTLTQSPSSLSASVGDRVTITCRASQGISNYLAWYQQKPGKVPKLLIFAASTLQSGVPSRFSGSGSGTDFTLTISSLQPEDVATYYCQNFNSVLSFTFGPGTKVDIK
For B12, the Kd stood at 0.452 nM in assay [5], 7.07 nM in assay [7] and 4.81 nM in assay [6].

B13: ADI-41660 (antibody, V domains shown)
VH: EVQLVQSGAEVKKPGSSVKVSCKASGGTFSRNAISWVRQAPGQGLEWMGGIIPIFGAANYPQKFQGRVTITADKSTSTAYMELSSLRSEDTALYYCARTMGEMTTTPVSIYYYGMDVWGQGTTVTVSS
VL: QSVLTQPPSVSAAPGQKVTISCSGSSSNIGINYVSWYQQLPGTAPKLLIYDNNKRPSGIPDRFSGSKSGTSATLGITGLQTGDEADYYCGTWDSSLSAGYVFGSGTKLTVL
Take B13: the “Neutralization IC50 (RSV subtype A)” value in assay [1] was greater than 25 µg/mL. The Kd was found to be 2.94 nM in assay [2] and 0.955 nM in assay [3].
